From patent publication US7098310B1, “Heterodimers of retinoid X receptors (RXRS) and other steroid hormone receptors” (Ligand Pharmaceuticals, priority 1991, dated 2006)

T1: FLAG-RXRα (human, UniProt P19793 1-462)
T1 construct: mature; in vitro translated; also called F-RXRα
T1 sequence: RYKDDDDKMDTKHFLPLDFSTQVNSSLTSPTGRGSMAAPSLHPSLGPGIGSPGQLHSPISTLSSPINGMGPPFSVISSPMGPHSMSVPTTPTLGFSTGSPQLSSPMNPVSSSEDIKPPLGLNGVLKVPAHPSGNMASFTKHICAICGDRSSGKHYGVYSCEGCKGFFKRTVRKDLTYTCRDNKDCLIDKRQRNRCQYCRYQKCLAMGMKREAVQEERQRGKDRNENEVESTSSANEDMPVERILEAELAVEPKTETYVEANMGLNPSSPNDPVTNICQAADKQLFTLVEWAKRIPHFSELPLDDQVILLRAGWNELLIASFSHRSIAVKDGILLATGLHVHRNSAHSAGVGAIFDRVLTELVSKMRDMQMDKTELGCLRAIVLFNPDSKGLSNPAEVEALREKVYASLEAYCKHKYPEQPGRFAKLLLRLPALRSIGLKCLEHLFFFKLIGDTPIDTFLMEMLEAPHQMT

T2: retinoid x receptor (RXRα) (human, UniProt P19793 1-462)
T2 construct: mature; In vitro translated full length receptor; 35S-labelled in the column and immunoprecipitation experiments
T2 sequence (looked up): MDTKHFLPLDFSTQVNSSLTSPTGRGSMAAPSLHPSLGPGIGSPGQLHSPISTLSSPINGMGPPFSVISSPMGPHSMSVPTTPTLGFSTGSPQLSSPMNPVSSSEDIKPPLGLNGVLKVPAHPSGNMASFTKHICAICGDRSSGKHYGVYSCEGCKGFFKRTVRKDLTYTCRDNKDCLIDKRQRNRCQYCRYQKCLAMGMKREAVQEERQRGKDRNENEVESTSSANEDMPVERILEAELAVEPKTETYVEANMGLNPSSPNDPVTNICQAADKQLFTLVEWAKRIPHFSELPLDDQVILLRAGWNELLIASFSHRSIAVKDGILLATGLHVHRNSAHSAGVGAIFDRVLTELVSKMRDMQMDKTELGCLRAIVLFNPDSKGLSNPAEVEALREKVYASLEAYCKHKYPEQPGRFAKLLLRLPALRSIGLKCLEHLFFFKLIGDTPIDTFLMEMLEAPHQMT

T3: retinoic acid receptor RARγ (UniProt P13631 1-454, limits assumed)
T3 construct: mature; In vitro translated
T3 sequence (looked up): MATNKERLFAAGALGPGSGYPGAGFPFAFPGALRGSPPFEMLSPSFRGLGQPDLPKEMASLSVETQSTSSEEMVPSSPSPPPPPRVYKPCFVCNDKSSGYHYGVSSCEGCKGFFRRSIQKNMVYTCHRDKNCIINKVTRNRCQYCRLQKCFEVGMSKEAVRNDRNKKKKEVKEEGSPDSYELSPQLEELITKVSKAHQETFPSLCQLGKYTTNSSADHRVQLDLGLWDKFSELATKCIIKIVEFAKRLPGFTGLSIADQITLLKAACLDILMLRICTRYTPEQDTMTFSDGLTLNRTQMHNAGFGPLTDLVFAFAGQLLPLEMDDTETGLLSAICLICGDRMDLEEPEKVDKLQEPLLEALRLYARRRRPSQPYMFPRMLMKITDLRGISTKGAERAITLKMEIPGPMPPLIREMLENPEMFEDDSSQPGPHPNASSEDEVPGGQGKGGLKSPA

T4: retinoic acid receptor RARβ (UniProt P10826 1-455, limits assumed)
T4 construct: mature; In vitro translated
T4 sequence (looked up): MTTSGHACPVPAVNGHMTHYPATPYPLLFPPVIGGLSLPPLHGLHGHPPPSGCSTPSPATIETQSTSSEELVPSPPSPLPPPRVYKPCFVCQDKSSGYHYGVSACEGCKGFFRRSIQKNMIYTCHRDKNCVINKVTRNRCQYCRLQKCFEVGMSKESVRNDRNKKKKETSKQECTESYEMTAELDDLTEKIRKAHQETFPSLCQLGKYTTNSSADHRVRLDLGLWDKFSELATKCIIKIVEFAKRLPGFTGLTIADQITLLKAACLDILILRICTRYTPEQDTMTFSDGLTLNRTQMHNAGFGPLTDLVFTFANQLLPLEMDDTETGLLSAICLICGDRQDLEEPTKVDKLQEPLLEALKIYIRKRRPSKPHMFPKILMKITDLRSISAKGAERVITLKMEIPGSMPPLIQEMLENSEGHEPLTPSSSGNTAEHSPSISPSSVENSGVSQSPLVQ

T5: retinoic acid receptor RARα (UniProt P10276 1-462, limits assumed)
T5 construct: mature; In vitro translated
T5 sequence (looked up): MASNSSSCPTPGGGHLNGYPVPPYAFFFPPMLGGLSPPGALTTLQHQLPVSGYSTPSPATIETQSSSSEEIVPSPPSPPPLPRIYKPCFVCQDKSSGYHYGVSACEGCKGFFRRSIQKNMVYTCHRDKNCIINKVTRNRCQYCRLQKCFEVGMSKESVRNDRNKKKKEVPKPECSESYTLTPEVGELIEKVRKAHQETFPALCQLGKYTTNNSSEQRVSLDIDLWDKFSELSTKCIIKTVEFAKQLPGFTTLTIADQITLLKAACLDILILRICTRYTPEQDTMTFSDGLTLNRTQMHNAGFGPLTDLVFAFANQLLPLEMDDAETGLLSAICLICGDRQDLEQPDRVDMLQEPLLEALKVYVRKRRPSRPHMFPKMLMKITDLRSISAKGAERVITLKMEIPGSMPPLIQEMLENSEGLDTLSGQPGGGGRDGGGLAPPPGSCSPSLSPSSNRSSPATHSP

T6: estrogen receptor (ER) (UniProt P03372 1-595, limits assumed)
T6 construct: In vitro translated; 35S-labelled in the column experiment
T6 sequence (looked up): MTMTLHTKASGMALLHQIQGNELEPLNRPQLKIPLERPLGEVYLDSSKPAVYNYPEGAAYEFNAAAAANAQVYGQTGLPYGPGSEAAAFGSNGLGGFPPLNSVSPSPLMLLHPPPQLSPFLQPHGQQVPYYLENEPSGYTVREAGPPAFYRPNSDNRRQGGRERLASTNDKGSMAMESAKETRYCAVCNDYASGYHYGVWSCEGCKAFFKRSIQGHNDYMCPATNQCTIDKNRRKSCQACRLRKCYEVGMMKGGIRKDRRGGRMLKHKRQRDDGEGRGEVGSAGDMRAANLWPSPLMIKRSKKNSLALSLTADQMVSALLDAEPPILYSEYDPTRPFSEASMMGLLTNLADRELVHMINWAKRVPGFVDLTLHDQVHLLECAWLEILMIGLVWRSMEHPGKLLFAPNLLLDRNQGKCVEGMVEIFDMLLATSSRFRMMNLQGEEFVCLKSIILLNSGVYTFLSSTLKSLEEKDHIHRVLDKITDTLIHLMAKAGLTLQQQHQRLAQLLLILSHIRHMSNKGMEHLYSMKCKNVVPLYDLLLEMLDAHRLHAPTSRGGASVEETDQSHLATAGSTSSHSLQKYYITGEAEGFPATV

B1: thyroid hormone receptor TRβ (receptor, human, UniProt P10828 1-461, looked up)
chain: MTPNSMTENGLTAWDKPKHCPDREHDWKLVGMSEACLHRKSHSERRSTLKNEQSSPHLIQTTWTSSIFHLDHDDVNDQSVSSAQTFQTEEKKCKGYIPSYLDKDELCVVCGDKATGYHYRCITCEGCKGFFRRTIQKNLHPSYSCKYEGKCVIDKVTRNQCQECRFKKCIYVGMATDLVLDDSKRLAKRKLIEENREKRRREELQKSIGHKPEPTDEEWELIKTVTEAHVATNAQGSHWKQKRKFLPEDIGQAPIVNAPEGGKVDLEAFSHFTKIITPAITRVVDFAKKLPMFCELPCEDQIILLKGCCMEIMSLRAAVRYDPESETLTLNGEMAVTRGQLKNGGLGVVSDAIFDLGMSLSSFNLDDTEVALLQAVLLMSSDRPGLACVERIEKYQDSFLLAFEHYINYRKHHVTHFWPKLLMKVTDLRMIGACHASRFLHMKVECPTELFPPLFLEVFED
notes: mature; In vitro translated; also called TR-B; c-erb-A-B

Columns and labels:
[1] = test system: RXRα-TRα and RXRα-RARα complexes; assay: Gel retardation assay of RXRα interaction with TRα or RARα on palindromic TRE; format: binding
FLAG-RXRα = biological target: T1, FLAG-RXRα; assay: gel retardation, 32P palindromic TRE, in vitro translated receptors
Procedure: (§1) After incubation at room temperature for 45 minutes, the effect of antibody on slow migrating complexes was analyzed by gel retardation using ^32-labelled palindromic TRE as a probe. As a control, receptor mixtures were also incubated with preimmune serum (NI).
(§2) In vitro translated receptor protein (1 to 5 µl depending on the translation efficiency) was incubated with the ^32P-labeled oligonucleotides in a 20-µl reaction mixture containing 10 mM hepes buffer, pH 7.9, 50 mM KCl, 1 mM DTT, 2.5 mM MgCl, 10% glycerol, and 1 µg of poly(dI-dC) at 25° C. for 20 minutes. In general, relative low receptor concentration was used to obtain the clear effect of heterodimer formation. The reaction mixture was then loaded on a 5% nondenaturing polyacrylamide gel containing 0.5× TBE (1×TBE=0.089 M TRIS-borate, 0.089 M boric acid, and 0.002 M EDTA). […] When antibody was used, 1 µl of the antiserum was incubated with the specific translation products at room temperature for 45 minutes before performing the experiments described above.

[2] = biological target: T2, retinoid x receptor (RXRα); assay: as above
Procedure: as §1, §2

[3] = biological target: T3, retinoic acid receptor RARγ; assay: as above
Procedure: as §1, §2

[4] = biological target: B1; assay: gel retardation, 32P palindromic TRE (data not shown)
[5] = biological target: T4, retinoic acid receptor RARβ; assay: as above
[6] = biological target: T5, retinoic acid receptor RARα; assay: as above
estrogen receptor (ER) = biological target: T6, estrogen receptor (ER); assay: glutathione sepharose affinity column, 35S-labelled ER, no DNA

Molecule	binding result [3]	binding result [4]	binding result [5]	binding result [6]	further results
N[C@@H](Cc1cc(I)c(Oc2ccc(O)c(I)c2)c(I)c1)C(=O)O [T3]	–	–	–	–	effect on migration rate of the TRα complex ([1]; T3 10^−7 M): slightly increases the migration rate; influence of hormone on formation of slow migrating complexes ([1]; hormone 10^−7 M, TRα and RARα with RXRα): no clear influence
B1	–	–	–	–	binding result (FLAG-RXRα): binds; binding result [2]: binds
RXRαm2 (receptor, human, UniProt P19793 1-387, looked up, range: lacks the carboxyterminal 75 amino acids; In vitro translated deletion mutant) MDTKHFLPLDFSTQVNSSLTSPTGRGSMAAPSLHPSLGPGIGSPGQLHSPISTLSSPINGMGPPFSVISSPMGPHSMSVPTTPTLGFSTGSPQLSSPMNPVSSSEDIKPPLGLNGVLKVPAHPSGNMASFTKHICAICGDRSSGKHYGVYSCEGCKGFFKRTVRKDLTYTCRDNKDCLIDKRQRNRCQYCRYQKCLAMGMKREAVQEERQRGKDRNENEVESTSSANEDMPVERILEAELAVEPKTETYVEANMGLNPSSPNDPVTNICQAADKQLFTLVEWAKRIPHFSELPLDDQVILLRAGWNELLIASFSHRSIAVKDGILLATGLHVHRNSAHSAGVGAIFDRVLTELVSKMRDMQMDKTELGCLRAIVLFNPDSKGLSNPA	no binding	no binding	no binding	no binding	–
RXRαm7 (receptor, human, UniProt P19793 1-462, looked up, In vitro translated deletion mutant) MDTKHFLPLDFSTQVNSSLTSPTGRGSMAAPSLHPSLGPGIGSPGQLHSPISTLSSPINGMGPPFSVISSPMGPHSMSVPTTPTLGFSTGSPQLSSPMNPVSSSEDIKPPLGLNGVLKVPAHPSGNMASFTKHICAICGDRSSGKHYGVYSCEGCKGFFKRTVRKDLTYTCRDNKDCLIDKRQRNRCQYCRYQKCLATGLHVHRNSAHSAGVGAIFDRVLTELVSKMRDMQMDKTELGCLRAIVLFNPDSKGLSNPAEVEALREKVYASLEAYCKHKYPEQPGRFAKLLLRLPALRSIGLKCLEHLFFFKLIGDTPIDTFLMEMLEAPHQMT	no binding	no binding	no binding	no binding	–
glutathione S-transferase-RARγ fusion protein (bacterially expressed FLAG-RARγ fusion protein) (other, mature; FLAG-RARγ cDNA cloned in frame into pGex-2T, expressed in bacteria, purified on glutathione sepharose 4B; also called RARγ-glutathione transferase fusion protein; glutathione transferase-RARγ; not shown: glutathione S-transferase encoded by the expression vector pGEX-2T (Pharmacia); vector linker not described) RYKDDDDKMATNKERLFAAGALGPGSGYPGAGFPFAFPGALRGSPPFEMLSPSFRGLGQPDLPKEMASLSVETQSTSSEEMVPSSPSPPPPPRVYKPCFVCNDKSSGYHYGVSSCEGCKGFFRRSIQKNMVYTCHRDKNCIINKVTRNRCQYCRLQKCFEVGMSKEAVRNDRNKKKKEVKEEGSPDSYELSPQLEELITKVSKAHQETFPSLCQLGKYTTNSSADHRVQLDLGLWDKFSELATKCIIKIVEFAKRLPGFTGLSIADQITLLKAACLDILMLRICTRYTPEQDTMTFSDGLTLNRTQMHNAGFGPLTDLVFAFAGQLLPLEMDDTETGLLSAICLICGDRMDLEEPEKVDKLQEPLLEALRLYARRRRPSQPYMFPRMLMKITDLRGISTKGAERAITLKMEIPGPMPPLIREMLENPEMFEDDSSQPGPHPNASSEDEVPGGQGKGGLKSPA	–	–	–	–	binding result (estrogen receptor (ER)): no binding
